In patent US20080044815A1 (published 2008):

Assays:
Assay in all cases: forward yeast two-hybrid, β-galactosidase overlay assay
[1] = biological target: T1, JNK1 point mutant Leu-131-Arg, fused to the B42 activation domain (pJG4-5) (human, UniProt Q91Y86 1-384 (mouse entry))
T1 construct: Full-length JNK1 single point mutant; two-hybrid prey; also called L131R; L131→R131

[2] = biological target: T2, JNK1 point mutant Tyr-320-His, fused to the B42 activation domain (pJG4-5) (human, UniProt Q91Y86 1-384 (mouse entry))
T2 construct: Full-length JNK1 single point mutant; two-hybrid prey; also called Y320H; Y320→H320

[3] = biological target: T3, JNK1 point mutant Arg-309-Trp, fused to the B42 activation domain (pJG4-5) (human, UniProt Q91Y86 1-384 (mouse entry))
T3 construct: Full-length JNK1 single point mutant; two-hybrid prey; also called R309W; R309→W309

Measured: binding result

B1: TI-JIP (Truncated Inhibitor of JNK based on JIP) fused to the LexA DNA-binding domain, from pGILDA-TI-JIP (peptide)
chain: MKALTARQQEVFDLIRDHISQTGMPPTRAEIAQRLGFRSPNAAEEHLKALARKGVIEIVSGASRGIRLLQEEEEGLPLVGRVAAGEPLLAQQHIEGHYQVDPSLFKPNADFLLRVSGMSMKDIGIMDGDLLAVHKTQDVRNGQVVVARIDDEVTVKRLKKQGNKVELLPENSEFKPIVVDLRQQSFTIEGLAVGVIRNGDWLRPKRPTTLNLF
notes: 11-residue peptide expressed in yeast as a C-terminal fusion with LexA (two-hybrid bait); also called bait
no binding: all assays above
